Test results taken from patent publication US20230189844.

Legend:
[1] = target: T1, Soy Bowman-Birk Inhibitor, P01055
T1 chain: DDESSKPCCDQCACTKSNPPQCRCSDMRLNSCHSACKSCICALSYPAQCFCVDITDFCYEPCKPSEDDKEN

[2] = target: T2, Soy Kunitz Inhibitor (Trypsin Inhibitor from soybean), P01070
T2 chain: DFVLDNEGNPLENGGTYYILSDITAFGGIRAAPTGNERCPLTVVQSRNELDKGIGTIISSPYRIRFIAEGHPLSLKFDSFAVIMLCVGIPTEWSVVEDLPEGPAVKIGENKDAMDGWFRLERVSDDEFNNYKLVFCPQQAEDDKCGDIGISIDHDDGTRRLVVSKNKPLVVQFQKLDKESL

[3] = target: Soybean agglutinin (SBA), P05046
Soybean agglutinin (SBA), P05046, sequence (P05046 33-285): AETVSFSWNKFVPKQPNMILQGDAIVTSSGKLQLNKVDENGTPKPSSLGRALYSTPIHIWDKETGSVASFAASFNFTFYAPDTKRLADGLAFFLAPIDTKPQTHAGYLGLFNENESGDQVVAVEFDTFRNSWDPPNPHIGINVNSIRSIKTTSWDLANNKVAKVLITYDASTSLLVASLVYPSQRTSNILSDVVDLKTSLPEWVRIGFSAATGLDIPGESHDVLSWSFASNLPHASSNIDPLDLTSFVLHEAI

B1: Protease derived from Nocardiopsis sp. NRRL 18262 (an acid-stable protease) (protein)
chain: ADIIGGLAYTMGGRCSVGFAATNAAGQPGFVTAGHCGRVGTQVTIGNGRGVFEQSVFPGNDAAFVRGTSNFTLTNLVSRYNTGGYATVAGHNQAPIGSSVCRSGSTTGWHCGTIQARGQSVSYPEGTVTNMTRTTVCAEPGDSGGSYISGTQAQGVTSGGSGNCRTGGTTFYQEVTPMVNSWGVRLRT
% of anti-nutritional factor degraded (SDS-PAGE band disappearance, 2 hours, 37° C., pH 6.5) [1]: 25% | % of anti-nutritional factor degraded (SDS-PAGE band disappearance, 2 hours, 37° C., pH 6.5) [2]: 100% | % of anti-nutritional factor degraded (SDS-PAGE band disappearance, 2 hours, 37° C., pH 6.5) [3]: 75%
